Test system: target antigen-expressing cell line
Assay: Jurkat NFAT-GFP assay, coculture with target cell lines expressing the respective target antigen (summary Table 10A)
Format: cell-based, human
Design: key: The signs +/−, +, 2+ etc. after the name of the cell lines indicate the relative degree of positivity on the Jurkat-NFAT-GFP assay as measured by the % GFP positive cells; +: relative degree of positivity on the Jurkat-NFAT-GFP assay as measured by the % GFP positive cells; 2+: relative degree of positivity on the Jurkat-NFAT-GFP assay as measured by the % GFP positive cells
Details: relative % GFP positive cells; for NFAT-GFP ASSAY Positive Cell lines: RAJI: SIR-expressing Jurkat-NFAT-GFP cells cocultured with RAJI
Method in brief: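 Coculture of SIR-bearing Jurkat NFAT-GFP reporters with target cells, ~1:2 E:T, ~4–18 h. FACS quantified % GFP+ cells, ranked semi-quantitatively against parental Jurkat-NFAT-GFP.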

| Molecule | NFAT-GFP ASSAY Positive Cell lines: L428 (SIR-expressing Jurkat-NFAT-GFP cells cocultured with L428) | NFAT-GFP ASSAY Positive Cell lines: RAJI |
| --- | --- | --- |
| 083116-D03 (protein, Polynucleotide encoding a Synthetic Immune Receptor (SIR)) MALPVTALLLPLALLLHAARPLEGKPIPNPLLGLDSTGSGEDLKNVFPPEVAVFEPSKAEIAHTQKATLVCLATGFYPDHVELSWWVNGKEVHSGVCTDPQPLKEQPALNDSRYCLSSRLRVSATFWQNPRNHFRCQVQFYGLSENDEWTQDRAKPVTQIVSAEAWGRADCGITSASYHQGVLSATILYEILLGKATLYAVLVSALVLMAMVKRKDSRGRAKRSGSGATNFSLLKQAGDVEENPGPTSMALPVTALLLPLALLLHAARPDIQMTQSPATIENTSLSASVGDRVTITCRASQGISSWLTWYQQKPEKAPKSLIYAASSLQSGVPSRFSGSGSGTDFTLTISSLQPEDFATYYCQQYDSYPITFGQGTRLEIKGGGGSGGGGSGGGGSQVQLQQWGAGLLKPSETLSLTCAVYGGSFSAYYWSWIRQPPGKGLEWIGDINHGGGTNYNPSLKSRVTISVDTSKNQFSLKLNSVTAADTAVYYCASLTAYWGQGSLVTVSSTREQKLISEEDLGSGTPFPSLAPPIMLLVDGKQQMVVVCLVLDVAPPGLDSPIWFSAGNGSALDAFTYGPSPATDGTWTNLAHLSLPSEELASWEPLVCHTGPGAEGHSRSTQPMHLSGEASTARTCPQEPLRGTPGGALWLGVLRLLLFKLLLFDLLLTCSCLCDPAGPLPSPATTTRLRALGSHRLHPATETGGREATSSPRPQPRDRRWGDTPPGRKPGSPVRAKRSGSGVKQTLNFDLLKLAGDVESNPGPSRSRGHMTEYKPTVRLATRDDVPRAVRTLAAAFADYPATRHTVDPDRHIERVTELQELFLTRVGLDIGKVWVADDGAAVAVWTTPESVEAGAVFAEIGPRMAELSGSRLAAQQQMEGLLAPHRPKEPAWFLATVGVSPDHQGKGLGSAVVLPGVEAAERAGVPAFLETSAPRNLPFYERLGFTVTADVEVPEGPRTWCMTRKPGA | L428 (+/−) | – |
| 062717-Q04 (protein) MALPVTALLLPLALLLHAARPLEGKPIPNPLLGLDSTGSGEDLKNVFPPEVAVFEPSKAEIAHTQKATLVCLATGFYPDHVELSWWVNGKEVHSGVCTDPQPLKEQPALNDSRYCLSSRLRVSATFWQNPRNHFRCQVQFYGLSENDEWTQDRAKPVTQIVSAEAWGRADCGITSASYHQGVLSATILYEILLGKATLYAVLVSALVLMAMVKRKDSRGRAKRSGSGATNFSLLKQAGDVEENPGPTSMALPVTALLLPLALLLHAARPQSALTQPASASGSPGQSVTISCTGTSSDVGGYNYVSWYQQHPGKAPKLMIYDVSNRPSGVSNRFSGSKSGNTASLTISGLQAEDEADYYCSSYTSSSTLYVFGTGTQLTVLGGGGSGGGGSGGGGSEVQLQQSGPGLVKPSQTLSLTCAISGDSMLSNSDTWNWIRQSPSRGLEWLGRTYHRSTWYDDYASSVRGRVSINVDTSKNQYSLQLNAVTPEDTGVYYCARVRLQDGNSWSDAFDVWGQGTMVTVSSTREQKLISEEDGSGIQNPDPAVYQLRDSKSSDKSVCLFTDFDSQTNVSQSKDSDVYITDKCVLDMRSMDFKSNSAVAWSNKSDFACANAFNNSIIPEDTFFPSSDVPCDVKLVEKSFETDTNLNFQNLSVIGFRILLLKVAGFNLLMTLRLWSSRAKRSGSGVKQTLNFDLLKLAGDVESNPGPSRGHMTEYKPTVRLATRDDVPRAVRTLAAAFADYPATRHTVDPDRHIERVTELQELFLTRVGLDIGKVWVADDGAAVAVWTTPESVEAGAVFAEIGPRMAELSGSRLAAQQQMEGLLAPHRPKEPAWFLATVGVSPDHQGKGLGSAVVLPGVEAAERAGVPAFLETSAPRNLPFYERLGFTVTADVEVPEGPRTWCMTRKPGA | – | RAJI (+) |
| 062717-O02 (protein) MALPVTALLLPLALLLHAARPLEGKPIPNPLLGLDSTGSGEDLKNVFPPEVAVFEPSKAEIAHTQKATLVCLATGFYPDHVELSWWVNGKEVHSGVCTDPQPLKEQPALNDSRYCLSSRLRVSATFWQNPRNHFRCQVQFYGLSENDEWTQDRAKPVTQIVSAEAWGRADCGITSASYHQGVLSATILYEILLGKATLYAVLVSALVLMAMVKRKDSRGRAKRSGSGATNFSLLKQAGDVEENPGPTSMALPVTALLLPLALLLHAARPEVQLQQSGPGLVKPSQTLSLTCAISGDSVLSNSDTWNWIRQSPSRGLEWLGRTYHRSTWYDDYASSVRGRVSINVDTSKNQYSLQLNAVTPEDTGVYYCARDRLQDGNSWSDAFDVWGQGTMVTVSSGGGGSGGGGSGGGGSQSALTQPASVSGSPGQSITISCTGTSSDVGGYNYVSWYQQHPGKAPKLMIYDVSNRPSGVSNRFSGSKSGNTASLTISGLQAEDEADYYCSSYTSSSTLVYVFGTGTKVTVLTREQKLISEEDGSGIQNPDPAVYQLRDSKSSDKSVCLFTDFDSQTNVSQSKDSDVYITDKCVLDMRSMDFKSNSAVAWSNKSDFACANAFNNSIIPEDTFFPSSDVPCDVKLVEKSFETDTNLNFQNLSVIGFRILLLKVAGFNLLMTLRLWSSRAKRSGSGVKQTLNFDLLKLAGDVESNPGPSRGHMTEYKPTVRLATRDDVPRAVRTLAAAFADYPATRHTVDPDRHIERVTELQELFLTRVGLDIGKVWVADDGAAVAVWTTPESVEAGAVFAEIGPRMAELSGSRLAAQQQMEGLLAPHRPKEPAWFLATVGVSPDHQGKGLGSAVVLPGVEAAERAGVPAFLETSAPRNLPFYERLGFTVTADVEVPEGPRTWCMTRKPGA | – | RAJI (+/−) |
| 062717-P06 (protein) MALPVTALLLPLALLLHAARPLEGKPIPNPLLGLDSTGSGEDLKNVFPPEVAVFEPSKAEIAHTQKATLVCLATGFYPDHVELSWWVNGKEVHSGVCTDPQPLKEQPALNDSRYCLSSRLRVSATFWQNPRNHFRCQVQFYGLSENDEWTQDRAKPVTQIVSAEAWGRADCGITSASYHQGVLSATILYEILLGKATLYAVLVSALVLMAMVKRKDSRGRAKRSGSGATNFSLLKQAGDVEENPGPTSMALPVTALLLPLALLLHAARPEVQLQQSGPGLVKPSQTLSLTCAISGDSVSSNSAAWNWIRQSPSRGLEWLGRTYYRSKWYSDYAVSVKSRITINPDTSKNQFSLQLNSVTPEDTAVYYCARDPYDFWSGYPDAFDIWGQGTMVTVSSGGGGSGGGGSGGGGSQSALTQPASVSGSPGQSITISCTGTSSDVGGYNYVSWYQQHPGKAPKVIISEVNNRPSGVSHRFSGSKSGNTASLTISGLQAEDEADYFCSSYTSGRTLYVFGTGSKVTVLGTREQKLISEEDGSGIQNPDPAVYQLRDSKSSDKSVCLFTDFDSQTNVSQSKDSDVYITDKCVLDMRSMDFKSNSAVAWSNKSDFACANAFNNSIIPEDTFFPSSDVPCDVKLVEKSFETDTNLNFQNLSVIGFRILLLKVAGFNLLMTLRLWSSRAKRSGSGVKQTLNFDLLKLAGDVESNPGPSRGHMTEYKPTVRLATRDDVPRAVRTLAAAFADYPATRHTVDPDRHIERVTELQELFLTRVGLDIGKVWVADDGAAVAVWTTPESVEAGAVFAEIGPRMAELSGSRLAAQQQMEGLLAPHRPKEPAWFLATVGVSPDHQGKGLGSAVVLPGVEAAERAGVPAFLETSAPRNLPFYERLGFTVTADVEVPEGPRTWCMTRKPGA | – | RAJI (+/−) |

Source: patent US12269859B2, “Synthetic immune receptors and methods of use thereof” (Angeles Therapeutics, Inc., priority 2016, dated 2025)
